According to patent US20120003694A1 (SYRACUSE UNIVERSITY, published 2012):
Like-named read-outs stand apart in the source and are kept apart here.

B1: pb2(35)-Ba (barnase fused to the first 35 amino acids of the N-terminal region of pre-cytochrome b2) (other)
chain: MLKYKPLLKISKNCEAAILRASKTRLNTIRAYGSTAQVINTFDGVADYLQTYHKLPDNYITKSEAQALGWVASKGNLADVAPGKSIGGDIFSNREGKLPGKSGRTWREADINYTSGFRNSDRILYSSDWLIYKTTDHYQTFTKIR
notes: range 1-35;domain: folded ribonuclease barnase (Ba), 110-residue; also called pb2(35)-Ba/35
B2: pb2(95)-Ba (barnase fused to the first 95 amino acids of the N-terminal region of pre-cytochrome b2) (other)
chain: MLKYKPLLKISKNCEAAILRASKTRLNTIRAYGSTVPKSKSFEQDSRKRTQSWTALRVGAILAATSSVAYLNWHNGQIDNEPKLDMNKQKISPAEAQVINTFDGVADYLQTYHKLPDNYITKSEAQALGWVASKGNLADVAPGKSIGGDIFSNREGKLPGKSGRTWREADINYTSGFRNSDRILYSSDWLIYKTTDHYQTFTKIR
notes: range 1-95;domain: folded ribonuclease barnase (Ba), 110-residue
B3: FhuA ΔC/Δ4L protein nanopore (engineered Escherichia coli ferric hydroxamate uptake component A lacking the cork domain and loops L3, L4, L5 and L11) (other)
chain: LKEVQFKAGTDSLFQTGFDFSDSLDDDGVYSYRLTGLARSANAQQKGSEEQRYAIAPAFTWRPDDKTNFTFLSYFQNEPETGNSEGSTYSRNEKMVGYSFDHEFNDTFTVRQNLRFAENKTSQNSVYGYGVNSEGSYLARKYVVDDEKLQNFSVDTQLQSKFATGDIDHTLLTGVDFMRMRNDINAWFGYNSEGSGPYRILNKQKQTGVYVQDQAQWDKVLVTLGGRYDWADQESLNRVAGTTDKRDDKQFTWRGGVNYLFDNGVTPYFSYSESFEPSSQVGKDGNIFAPSKGKQYEVGVKYVPEDRPIVVTGAVYNLTKTNNLMADPEGSFFSVEGGEIRARGVEIEAKAALSASVNVVGSYTYTDAEYTTDTTYKGNTPAQVPKHMASLWADYTFFDGPLSGLTLGTGGRYTGSSYGDPANSFKVGSYTVVDALVRYDLARVGMAGSNVALHVNNSEGSQVVATATFRF
B4: pb2(65)-Ba (barnase fused to the first 65 amino acids of the N-terminal region of pre-cytochrome b2) (other)
chain: MLKYKPLLKISKNCEAAILRASKTRLNTIRAYGSTVPKSKSFEQDSRKRTQSWTALRVGAILAATAQVINTFDGVADYLQTYHKLPDNYITKSEAQALGWVASKGNLADVAPGKSIGGDIFSNREGKLPGKSGRTWREADINYTSGFRNSDRILYSSDWLIYKTTDHYQTFTKIR
notes: range 1-65;domain: folded ribonuclease barnase (Ba), 110-residue

Tests used:
[1] = target: B3; experiment: single-channel recording at a higher applied voltage (+120 mV)
[2] = target: B3; experiment: single-channel recording at a higher applied voltage (+100 mV)
[3] = target: B1
[4] = target: T1, HIV-1 nucleocapsid protein (NCp7) (HIV-1, UniProt P04591 378-432); experiment: single-channel electrical recording, planar lipid bilayer, analyte added trans, 1 M KCl, 10 mM potassium phosphate, pH 7.4
T1 construct: domain: nucleocapsid protein (NCp7), 55 amino acids; also called NCp7/55

[5] = target: B1; experiment: as above

| Binder | partition time at +120 mV [1] | partition time at +100 mV [2] | kon [3] | koff [4] | kon [4] | kon [5] |
| --- | --- | --- | --- | --- | --- | --- |
| B1 | ~12 ms | ~4 ms |  |  |  |  |
| B2 | ~12 ms | ~4 ms |  |  |  |  |
| B3 |  |  | 110000 M⁻¹ s⁻¹ | 9000 s⁻¹ | 2e+06 M⁻¹ s⁻¹ | 180000 M⁻¹ s⁻¹ |
| B4 | ~12 ms | ~4 ms |  |  |  |  |
